Values of other authors in PMC3883350.
Like-named read-outs stand apart in the source and are kept apart here. Blank lines part the entries; values can stand above or below the substance they belong to.

Legend:
VIP (Homo sapiens) [1] = molecular target: VIP (Homo sapiens) (UniProt P01282)
PACAP (Homo sapiens) [2] = molecular target: PACAP (Homo sapiens) (UniProt P18509)
PACAP (Homo sapiens) [3] = molecular target: PACAP (Homo sapiens) (UniProt P18509); remark: listed apart in the source
VIP (Homo sapiens) [4] = molecular target: VIP (Homo sapiens) (UniProt P01282); remark: listed apart in the source
VIP (Homo sapiens) [5] = molecular target: VIP (Homo sapiens) (UniProt P01282); remark: listed apart in the source
PACAP (Homo sapiens) [6] = molecular target: PACAP (Homo sapiens) (UniProt P18509); remark: listed apart in the source

UniProt P01282, sequence (P01282 125-152): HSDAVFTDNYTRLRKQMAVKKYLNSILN
UniProt P18509, sequence (P18509 82-129): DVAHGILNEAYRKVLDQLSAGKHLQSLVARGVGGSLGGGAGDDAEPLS

- Kd (VIP (Homo sapiens) [1]): 1 nM
- Kd (PACAP (Homo sapiens) [2]): 1 nM
Substance: VPAC2 (from UniProt P41587)

- Kd (PACAP (Homo sapiens) [3]): 0.5 nM
- Kd (VIP (Homo sapiens) [4]): > 500 nM
Substance: PAC1 (from UniProt P41586)

- Kd (VIP (Homo sapiens) [5]): 1 nM
- Kd (PACAP (Homo sapiens) [6]): 1 nM
Substance: VPAC1 (from UniProt P32241)
